Here are results for one molecule from patent publication US20190353647A1 (UNIVERSITE DE BORDEAUX, published 2019).

The target in this test is YFP-CaM (human, UniProt P0DP23 2-149). The test can be described thus: BRET titration curves in live HEK293T cells. Background: BRET reads energy transfer from a luciferase to a nearby fluorophore.

B1: TRPV1-Luc (receptor)
chain: MKKWSSTDLGAAADPLQKDTCPDPLDGDPNSRPPPAKPQLSTAKSRTRLFGKGDSEEAFPVDCPHEEGELDSCPTITVSPVITIQRPGDGPTGARLLSQDSVAASTEKTLRLYDRRSIFEAVAQNNCQDLESLLLFLQKSKKHLTDNEFKDPETGKTCLLKAMLNLHDGQNTTIPLLLEIARQTDSLKELVNASYTDSYYKGQTALHIAIERRNMALVTLLVENGADVQAAAHGDFFKKTKGRPGFYFGELPLSLAACTNQLGIVKFLLQNSWQTADISARDSVGNTVLHALVEVADNTADNTKFVTSMYNEILMLGAKLHPTLKLEELTNKKGMTPLALAAGTGKIGVLAYILQREIQEPECRHLSRKFTEWAYGPVHSSLYDLSCIDTCEKNSVLEVIAYSSSETPNRHDMLLVEPLNRLLQDKWDRFVKRIFYFNFLVYCLYMIIFTMAAYYRPVDGLPPFKMEKTGDYFRVTGEILSVLGGVYFFFRGIQYFLQRRPSMKTLFVDSYSEMLFFLQSLFMLATVVLYFSHLKEYVASMVFSLALGWTNMLYYTRGFQQMGIYAVMIEKMILRDLCRFMFVYIVFLFGFSTAVVTLIEDGKNDSLPSESTSHRWRGPACRPPDSSYNSLYSTCLELFKFTIGMGDLEFTENYDFKAVFIILLLAYVILTYILLLNMLIALMGETVNKIAQESKNIWKLQRAITILDTEKSFLKCMRKAFRSGKLLQVGYTPDGKDDYRWCFRVDEVNWTTWNTNVGIINEDPGNCEGVKRTLSFSLRSSRVSGRHWKNFALVPLLREASARDRQSAQPEEVYLRQFSGSLKPEDAEVFKSPAASGEKVPVNSGGGGS
notes: whole, on cells; BRET donor fusion, Luc at the C-terminus of TRPV1; transiently expressed in live HEK293T cells; also called hTRPV1-Luc; not shown: Renilla Luciferase II (Luc, Luc2, a mutant of Renilla reniformis luciferase)
Take B1: the binding result is given as “binds”.
